Experimental data: patent US20220204996A1
Values belong to the molecule of their own block, whether it stands above or below them.

What was measured:
[1] = target: PSI purified from WT^H6 (Chlamydomonas reinhardtii) (UniProt P12154); assay: cell-based or functional assay
[2] = target: PSI-HydA complex of the ΨH1 strain (hydA1-1 hydA2-1 [psaC-hydA2]) (Chlamydomonas reinhardtii) (UniProt P12154); assay: cell-based or functional assay
[3] = target: PSI-HydA complex purified from ΨH1^H6 (Chlamydomonas reinhardtii) (UniProt P12154); assay: cell-based or functional assay
[4] = target: PSI-HydA complex purified from ΨH1^H6 (Chlamydomonas reinhardtii) (UniProt P12154); assay: immunoblot of isolated PSI particles loaded on equal P700
[5] = target: PSI-HydA complex of the ΨH1 strain (hydA1-1 hydA2-1 [psaC-hydA2]) (Chlamydomonas reinhardtii) (UniProt P12154); assay: cell-based or functional assay; remark: listed apart in the source
[6] = substrate: PSI purified from the hydA strain (hydA1-1 hydA2-1) (Chlamydomonas reinhardtii) (UniProt P12154); assay: cell-based or functional assay

NADP+ photoreduction rate (coupled assay with Fd and FNR) (NADPH s^-1 per PSI) [1]: 1.57
rate of H2 production in the dark (GC-TCD, ΨH1 culture) (nmol H2 h^-1 (mg Chl)^-1) [2]: 330
NADP+ photoreduction rate (coupled assay with Fd and FNR) (NADPH s^-1 per PSI) [3]: 0.77
ability of PSI-HydA to reduce algal Fd (in a coupled assay) [3]: 50%
Molecule: ferredoxin (Fd) (from UniProt P07839 33-126)

ratio of anti-PsaD cross-reactive bands (PSI : PSI-HydA) (ratio to WT PSI) [4]: 1.02
B1: PsaD (protein, Chlamydomonas reinhardtii, UniProt Q39615 36-196, looked up)
chain: EAEAAPAAAKKAAEKPAWTVPTLNPDTPSPIFGGSTGGLLRKAQTEEFYVITWEAKKEQIFEMPTGGAAIMRQGPNLLKFGKKEQCLALTTQLRNKFKLTPCFYRVFPDGKVQYLHPADGVYPEKVNAGRVGANQNMRRIGQNVNPIKVKFSGRMMSPAEI

Flavodoxin photoreduction turnover rate [5]: 0.088 s⁻¹
light-driven reduction of cyanobacterial flavodoxin, drop against PSI [5]: 9 fold
Flavodoxin photoreduction turnover rate [6]: 0.77 s⁻¹
B2: Recombinant Synechococcus sp. PCC7002 flavodoxin (protein, UniProt P31158 2-170, looked up)
chain: SKIGLFFGTQTGNTEELAQAIQAAFGGSDIVELFDVAEVDIEALRDFDQLIIGCPTWNVGELQSDWEALYDDLDDVDFSGKTIAYFGAGDQVGYADNFQDAMGVLEEKITSLGGKTVGQWPTAGYDHSESKAERDGKFVGLAIDEDNQPELTAERIQAWVAQLKPAFGL
